The data set deals with the molecule itself. The data set is described as follows: SEC. For orientation: In gel filtration, larger molecules generally elute earlier.

B1: MBP-Δexon3 NLRP3 + GSGAGG linker (human NLRP3 3-1036, Δ95-134 + linker (GSGAGG)) (natural protein)
chain: MASTRCKLARYLEDLEDVDLKKFKMHLEDYPPQKGCIPLPRGQTEKADHVDLATLMIDFNGEEKAWAMAVWIFAAINRRDLYEKAKRDEPKWGSGAGGDYRKKYRKYVRSRFQCIEDRNARLGESVSLNKRYTRLRLIKEHRSQQEREQELLAIGKTKTCESPVSPIKMELLFDPDDEHSEPVHTVVFQGAAGIGKTILARKMMLDWASGTLYQDRFDYLFYIHCREVSLVTQRSLGDLIMSCCPDPNPPIHKIVRKPSRILFLMDGFDELQGAFDEHIGPLCTDWQKAERGDILLSSLIRKKLLPEASLLITTRPVALEKLQHLLDHPRHVEILGFSEAKRKEYFFKYFSDEAQARAAFSLIQENEVLFTMCFIPLVCWIVCTGLKQQMESGKSLAQTSKTTTAVYVFFLSSLLQPRGGSQEHGLCAHLWGLCSLAADGIWNQKILFEESDLRNHGLQKADVSAFLRMNLFQKEVDCEKFYSFIHMTFQEFFAAMYYLLEEEKEGRTNVPGSRLKLPSRDVTVLLENYGKFEKGYLIFVVRFLFGLVNQERTSYLEKKLSCKISQQIRLELLKWIEVKAKAKKLQIQPSQLELFYCLYEMQEEDFVQRAMDYFPKIEINLSTRMDHMVSSFCIENCHRVESLSLGFLHNMPKEEEEEEKEGRHLDMVQCVLPSSSHAACSHGLVNSHLTSSFCRGLFSVLSTSQSLTELDLSDNSLGDPGMRVLCETLQHPGCNIRRLWLGRCGLSHECCFDISLVLSSNQKLVELDLSDNALGDFGIRLLCVGLKHLLCNLKKLWLVSCCLTSACCQDLASVLSTSHSLTRLYVGENALGDSGVAILCEKAKNPQCNLQKLGLVNSGLTSVCCSALSSVLSTNQNLTHLYLRGNTLGDKGIKLLCEGLLHPDCKLQVLELDNCNLTSHCCWDLSTLLTSSQSLRKLSLGNNDLGDLGVMMFCEVLKQQSCLLQNLGLSEMYFNYETKSALETLQEEKPELTVVFEPSW
With B1, the binding result is reported as “binds”.
